Laboratory results: patent publication US20250243281A1 (IMMUNITAS THERAPEUTICS, published 2025)

T1: hCLEC2D (human, UniProt Q9UHP7 1-191)
T1 construct: Overexpressed on HEK293 or K562 cells; the same id is used for endogenous CLEC2D on NALM6 and Raji cells; also called LLT1
T1 sequence: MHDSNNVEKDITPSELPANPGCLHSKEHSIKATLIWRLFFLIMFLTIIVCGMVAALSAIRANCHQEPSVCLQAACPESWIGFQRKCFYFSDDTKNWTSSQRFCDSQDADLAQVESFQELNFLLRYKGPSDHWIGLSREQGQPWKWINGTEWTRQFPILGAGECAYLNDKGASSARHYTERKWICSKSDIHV

T2: hKLRF1 (human, UniProt Q9NZS2 1-231)
T2 construct: Overexpressed on HEK293 cells
T2 sequence: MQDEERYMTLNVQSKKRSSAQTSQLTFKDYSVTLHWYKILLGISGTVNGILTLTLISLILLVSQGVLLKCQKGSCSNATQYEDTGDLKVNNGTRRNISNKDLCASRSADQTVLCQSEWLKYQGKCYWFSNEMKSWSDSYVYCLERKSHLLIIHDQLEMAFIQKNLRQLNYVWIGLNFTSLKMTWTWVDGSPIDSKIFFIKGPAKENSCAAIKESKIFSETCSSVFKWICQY

T3: hKLRF2 (human, UniProt D3W0D1 1-207)
T3 construct: Overexpressed on HEK293 cells
T3 sequence: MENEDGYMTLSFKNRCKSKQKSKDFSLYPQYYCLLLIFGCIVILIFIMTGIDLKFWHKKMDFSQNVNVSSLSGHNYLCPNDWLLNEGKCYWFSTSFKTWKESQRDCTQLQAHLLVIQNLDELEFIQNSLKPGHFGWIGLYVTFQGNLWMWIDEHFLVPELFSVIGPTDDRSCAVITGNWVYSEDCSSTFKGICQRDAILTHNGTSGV

T4: hCLEC12B (human, UniProt Q2HXU8 1-276)
T4 construct: Overexpressed on HEK293 cells
T4 sequence: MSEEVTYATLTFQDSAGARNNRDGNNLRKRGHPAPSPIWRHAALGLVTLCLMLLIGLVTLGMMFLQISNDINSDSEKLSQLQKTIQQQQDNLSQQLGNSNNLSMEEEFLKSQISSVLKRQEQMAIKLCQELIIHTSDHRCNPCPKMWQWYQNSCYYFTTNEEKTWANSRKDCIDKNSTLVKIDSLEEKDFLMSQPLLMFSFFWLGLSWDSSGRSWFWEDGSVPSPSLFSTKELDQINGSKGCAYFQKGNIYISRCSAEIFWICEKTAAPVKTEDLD

B1: Ustekinumab (antibody, V domains shown)
VH: EVQLVQSGAEVKKPGESLKISCKGSGYSFTTYWLGWVRQMPGKGLDWIGIMSPVDSDIRYSPSFQGQVTMSVDKSITTAYLQWNSLKASDTAMYYCARRRPGQGYFDFWGQGTLVTVSS
VL: DIQMTQSPSSLSASVGDRVTITCRASQGISSWLAWYQQKPEKAPKSLIYAASSLQSGVPSRFSGSGSGTDFTLTISSLQPEDFATYYCQQYNIYPYTFGQGTKLEIK
B2: Ab7 (antibody, human IgG1, V domains shown)
VH: EVQLLESGGGLVQPGGSLRLSCAASGFTFGQYAMSWVRQAPGKGLEWVSAISAAGGTTYYADSVKGRFTISRDNSKNTLYLQMNSLRAEDTAVYYCAKPLDSSQWADFDLWGRGTLVTVSS
VL: DIQLTQSPSSVSASVGDRVTITCRASQGISSWLAWYQQKPGKAPKLLIYAASFLQSGVPSRFSGSGSGTDFTLTISSLQPEDFATYYCQQASVLPITFGGGTKVEIK
notes: IgG purified from yeast culture
B3: Ab8 (antibody, human IgG1, V domains shown)
VH: EVQLLESGGGLVQPGGSLRLSCAASGFTFGTFAMSWVRQAPGKGLEWVSAISGVGGTTYYADSVKGRFTISRDNSKNTLYLQMNSLRAEDTAVYYCAKPLDSSFWADFDLWGRGTLVTVSS
VL: DIQLTQSPSSVSASVGDRVTITCRASQTISSWLAWYQQKPGKAPKLLIYAASSLQSGVPSRFSGSGSGTDFTLTISSLQPEDFATYYCQQQSVLPITFGGGTKVEIK
notes: as for B2
B4: Ab1 (antibody, human IgG1, V domains shown)
VH: EVQLLESGGGLVQPGGSLRLSCAASGFAFSTYAMSWVRQAPGKGLEWVSAISAAGGTTYYADSVKGRFTISRDNSKNTLYLQMNSLRAEDTAVYYCAKPLDSSLWADFDLWGRGTLVTVSS
VL: DIQMTQSPSSVSASVGDRVTITCRASQGIDSWLAWYQQKPGKAPKLLIYAASSLQSGVPSRFSGSGSGTDFTLTISSLQPEDFATYYCQQASVLPITFGGGTKVEIK
notes: as for B2
B5: Ab5 (antibody, human IgG1, V domains shown)
VH: EVQLLESGGGLVQPGGSLRLSCAASGFTFGQYAMSWVRQAPGKGLEWVSAISAVGGTTAYADSVKGRFTISRDNSKNTLYLQMNSLRAEDTAVYYCAKPLDSSLWADFQLWGRGTLVTVSS
VL: DIQLTQSPSSVSASVGDRVTITCRASQDISSWLAWYQQKPGKAPKLLIYFASSLQSGVPSRFSGSGSGTDFTLTISSLQPEDFATYYCQQASKLPITFGGGTKVEIK
notes: as for B2
B6: Ab2 (antibody, human IgG1, V domains shown)
VH: EVQLLESGGGLVQPGGSLRLSCAASGFAFSTYAMSWVRQAPGKGLEWVSAISGVGGTTYYADSVKGRFTISRDNSKNTLYLQMNSLRAEDTAVYYCAKPLDSSLWADFDLWGRGTLVTVSS
VL: DIQLTQSPSSVSASVGDRVTITCRASQGISSWLAWYQQKPGKAPKLLIYYASSLQDGVPSRFSGSGSGTDFTLTISSLQPEDFATYYCQQASVLPITFGGGTKVEIK
notes: as for B2
B7: Ab4 (antibody, human IgG1, V domains shown)
VH: EVQLLESGGGLVQPGGSLRLSCAASGFTFERYAMSWVRQAPGKGLEWVSAISAVGGTTKYADSVKGRFTISRDNSKNTLYLQMNSLRAEDTAVYYCAKPLDSSLWADFDAWGRGTLVTVSS
VL: DIQLTQSPSSVSASVGDRVTITCRASQGISSWLAWYQQKPGKAPKLLIYAASGLQSGVPSRFSGSGSGTDFTLTISSLQPEDFATYYCQQASYLPITFGGGTKVEIK
notes: as for B2
B8: Ab9 (antibody, human IgG1, V domains shown)
VH: EVQLLESGGGLVQPGGSLRLSCAASGFTFSPYAMSWVRQAPGKGLEWVSAISASGGTTYYADSVKGRFTISRDNSKNTLYLQMNSLRAEDTAVYYCAKPLDSSFWADFDLWGRGTLVTVSS
VL: DIQLTQSPSSVSASVGDRVTITCRASQGISSWLAWYQQKPGKAPKLLIYAASSLQSGVPSRFSGSGSGTDFTLTISSLQPEDFATYYCQQHSVLPITFGGGTKVEIK
B9: Ab6 (antibody, human IgG1, V domains shown)
VH: EVQLLESGGGLVQPGGSLRLSCAASGFTFGQYAMSWVRQAPGKGLEWVSAISAAGGTTYYADSVKGRFTISRDNSKNTLYLQMNSLRAEDTAVYYCAKPLDSSQWADFDLWGRGTLVTVSS
VL: DIQLTQSPSSVSASVGDRVTITCRASQGISSWLAWYQQKPGKAPKLLIYAASSLQSGVPSRFSGSGSGTDFTLTINSLQPEDFATYYCQQAWVLPITFGGGTKVEIK
notes: as for B2

What was measured:
human HSP70 = target: T5, human HSP70 (human, UniProt P0DMV8 1-641); assay: polyspecificity ELISA, coated HSP70, 100 nM antibody
T5 construct: polyspecificity reagent

hCLEC2D [1] = target: T1, hCLEC2D; assay: flow cytometry, HEK293 transfectants, 100 nM antibody;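 note: antibody applied at a saturating level and incubated with cells for 30 min at room temperature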
Procedure: (§1) For the antibody binding assay, all cell lines were washed in phosphate-buffered saline with 0.1% bovine serum albumin (PBSA) and seeded in a 96 well plate at a density of 4×10⁴ cells per well. Washed cells were resuspended in 100 nM of antibody (a saturating concentration to measure maximum binding on cells) and incubated at room temperature for 30 minutes. […] Cells were analyzed by flow cytometry with a Thermo Fisher Attune flow cytometer.
(§2) Data were analyzed using FlowJo software. MFI for each sample was calculated and exported into Graphpad Prism.

hKLRF1 [2] = target: T2, hKLRF1; assay: as above
Procedure: as §1, §2

hKLRF2 [3] = target: T3, hKLRF2; assay: as above
Procedure: as §1, §2

hCLEC12B [4] = target: T4, hCLEC12B; assay: as above
Procedure: as §1, §2

hKLRF1 [5] = target: T2, hKLRF1; assay: flow cytometry; 100 nM antibody on HEK293 cells expressing KLRF1; Alexa Fluor 647 anti-human IgG; MFI
Procedure: as §1, §2

hKLRF2 [6] = target: T3, hKLRF2; assay: flow cytometry; 100 nM antibody on HEK293 cells expressing KLRF2; Alexa Fluor 647 anti-human IgG; MFI
Procedure: as §1, §2

hCLEC2D [7] = target: T1, hCLEC2D; assay: flow cytometry; 100 nM antibody on HEK293 cells expressing CLEC2D; Alexa Fluor 647 anti-human IgG; MFI
Procedure: as §1, §2

hCLEC12B [8] = target: T4, hCLEC12B; assay: flow cytometry; 100 nM antibody on HEK293 cells expressing CLEC12B; Alexa Fluor 647 anti-human IgG; MFI
Procedure: as §1, §2

T5 sequence (P0DMV8 whole entry): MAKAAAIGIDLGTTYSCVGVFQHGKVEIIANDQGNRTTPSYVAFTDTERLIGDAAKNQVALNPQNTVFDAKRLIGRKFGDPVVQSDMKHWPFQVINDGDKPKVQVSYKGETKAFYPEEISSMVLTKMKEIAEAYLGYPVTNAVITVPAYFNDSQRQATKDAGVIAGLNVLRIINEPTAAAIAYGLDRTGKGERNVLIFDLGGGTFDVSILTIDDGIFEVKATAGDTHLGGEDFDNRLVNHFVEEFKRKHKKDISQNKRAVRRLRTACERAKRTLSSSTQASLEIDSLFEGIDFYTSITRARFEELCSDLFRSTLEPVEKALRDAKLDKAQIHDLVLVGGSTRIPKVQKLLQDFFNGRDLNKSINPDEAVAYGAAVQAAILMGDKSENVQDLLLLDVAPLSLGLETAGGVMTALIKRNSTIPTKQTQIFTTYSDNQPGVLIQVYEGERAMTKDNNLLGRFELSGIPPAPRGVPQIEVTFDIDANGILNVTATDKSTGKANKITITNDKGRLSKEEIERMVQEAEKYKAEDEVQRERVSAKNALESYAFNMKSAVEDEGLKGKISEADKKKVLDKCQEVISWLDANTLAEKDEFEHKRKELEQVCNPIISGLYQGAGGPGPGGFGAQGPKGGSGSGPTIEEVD

Binder	Norm (signal over AdalimumAb) (human HSP70) [fold]	% of CD161 binding (hCLEC2D [1]) [%]	% of CD161 binding (hKLRF1 [2]) [%]	% of CD161 binding (hKLRF2 [3]) [%]	% of CD161 binding (hCLEC12B [4]) [%]	binding result (hKLRF1 [5])	binding result (hKLRF2 [6])	binding result (hCLEC2D [7])	binding result (hCLEC12B [8])
B1	3.71	–	–	–	–	–	–	–	–
B2	–	1.09	0.018	0.04	0.011	no binding (tested: 100 nM)	no binding (tested: 100 nM)	no binding (tested: 100 nM)	no binding (tested: 100 nM)
B3	–	0.846	0.031	0.038	0.049	no binding (tested: 100 nM)	no binding (tested: 100 nM)	no binding (tested: 100 nM)	no binding (tested: 100 nM)
B4	–	0.975	0.073	0.036	0.04	no binding (tested: 100 nM)	no binding (tested: 100 nM)	no binding (tested: 100 nM)	no binding (tested: 100 nM)
B5	–	0.872	0.059	0.035	0.056	no binding (tested: 100 nM)	no binding (tested: 100 nM)	no binding (tested: 100 nM)	no binding (tested: 100 nM)
B6	–	0.863	0.032	0.049	0.057	no binding (tested: 100 nM)	no binding (tested: 100 nM)	no binding (tested: 100 nM)	no binding (tested: 100 nM)
B7	–	1.11	0.095	0.056	0.074	no binding (tested: 100 nM)	no binding (tested: 100 nM)	no binding (tested: 100 nM)	no binding (tested: 100 nM)
B8	–	0.808	0.042	0.028	0.025	no binding (tested: 100 nM)	no binding (tested: 100 nM)	no binding (tested: 100 nM)	no binding (tested: 100 nM)
B9	–	1.01	0.036	0.029	0.011	no binding (tested: 100 nM)	no binding (tested: 100 nM)	no binding (tested: 100 nM)	no binding (tested: 100 nM)
